{"source": "patent US20080020978A1", "about": "(Amgen, published 2008)", "binders": {"B1": {"name": "SEQ ID NO 916 (peptide)", "peptide": "C[Ahx]WVTHRLAGLLSRSGGVVRKNFVPTDVGPFAF-NH2", "modifications": "N-terminus assumed", "SMILES": "CC(C)C[C@H](NC(=O)CNC(=O)[C@H](C)NC(=O)[C@H](CC(C)C)NC(=O)[C@H](CCCNC(=N)N)NC(=O)[C@H](Cc1c[nH]cn1)NC(=O)[C@@H](NC(=O)[C@@H](NC(=O)[C@H](Cc1c[nH]c2ccccc12)NC(=O)CCCCCNC(=O)[C@@H](N)CS)C(C)C)[C@@H](C)O)C(=O)N[C@@H](CC(C)C)C(=O)N[C@@H](CO)C(=O)N[C@@H](CCCNC(=N)N)C(=O)N[C@@H](CO)C(=O)NCC(=O)NCC(=O)N[C@H](C(=O)N[C@H](C(=O)N[C@@H](CCCNC(=N)N)C(=O)N[C@@H](CCCCN)C(=O)N[C@@H](CC(N)=O)C(=O)N[C@@H](Cc1ccccc1)C(=O)N[C@H](C(=O)N1CCC[C@H]1C(=O)N[C@H](C(=O)N[C@@H](CC(=O)O)C(=O)N[C@H](C(=O)NCC(=O)N1CCC[C@H]1C(=O)N[C@@H](Cc1ccccc1)C(=O)N[C@@H](C)C(=O)N[C@@H](Cc1ccccc1)C(N)=O)C(C)C)[C@@H](C)O)C(C)C)C(C)C)C(C)C"}, "B2": {"name": "SEQ ID NO 908 (peptide)", "peptide": "Ac-WVEH[hArg]LKGLLS[Cit]SGGVV[hArg]KNFVPTDVGPFAF-NH2", "modifications": "lactam 3-7", "SMILES": "CC(=O)N[C@@H](Cc1c[nH]c2ccccc12)C(=O)N[C@H](C(=O)N[C@H]1CCC(=O)NCCCC[C@@H](C(=O)NCC(=O)N[C@@H](CC(C)C)C(=O)N[C@@H](CC(C)C)C(=O)N[C@@H](CO)C(=O)N[C@@H](CCCNC(N)=O)C(=O)N[C@@H](CO)C(=O)NCC(=O)NCC(=O)N[C@H](C(=O)N[C@H](C(=O)N[C@@H](CCCCNC(=N)N)C(=O)N[C@@H](CCCCN)C(=O)N[C@@H](CC(N)=O)C(=O)N[C@@H](Cc2ccccc2)C(=O)N[C@H](C(=O)N2CCC[C@H]2C(=O)N[C@H](C(=O)N[C@@H](CC(=O)O)C(=O)N[C@H](C(=O)NCC(=O)N2CCC[C@H]2C(=O)N[C@@H](Cc2ccccc2)C(=O)N[C@@H](C)C(=O)N[C@@H](Cc2ccccc2)C(N)=O)C(C)C)[C@@H](C)O)C(C)C)C(C)C)C(C)C)NC(=O)[C@H](CC(C)C)NC(=O)[C@H](CCCCNC(=N)N)NC(=O)[C@H](Cc2c[nH]cn2)NC1=O)C(C)C"}, "B3": {"name": "SEQ ID NO 909 (peptide)", "peptide": "Ac-WVEH[hArg]LKGLLS[Cit]SG[Aze]VV[hArg]KNFVPTDVGPFAF-NH2", "modifications": "lactam 3-7", "SMILES": "CC(=O)N[C@@H](Cc1c[nH]c2ccccc12)C(=O)N[C@H](C(=O)N[C@H]1CCC(=O)NCCCC[C@@H](C(=O)NCC(=O)N[C@@H](CC(C)C)C(=O)N[C@@H](CC(C)C)C(=O)N[C@@H](CO)C(=O)N[C@@H](CCCNC(N)=O)C(=O)N[C@@H](CO)C(=O)NCC(=O)N2CC[C@H]2C(=O)N[C@H](C(=O)N[C@H](C(=O)N[C@@H](CCCCNC(=N)N)C(=O)N[C@@H](CCCCN)C(=O)N[C@@H](CC(N)=O)C(=O)N[C@@H](Cc2ccccc2)C(=O)N[C@H](C(=O)N2CCC[C@H]2C(=O)N[C@H](C(=O)N[C@@H](CC(=O)O)C(=O)N[C@H](C(=O)NCC(=O)N2CCC[C@H]2C(=O)N[C@@H](Cc2ccccc2)C(=O)N[C@@H](C)C(=O)N[C@@H](Cc2ccccc2)C(N)=O)C(C)C)[C@@H](C)O)C(C)C)C(C)C)C(C)C)NC(=O)[C@H](CC(C)C)NC(=O)[C@H](CCCCNC(=N)N)NC(=O)[C@H](Cc2c[nH]cn2)NC1=O)C(C)C"}, "B4": {"name": "SEQ ID NO 903 (peptide)", "peptide": "Ac-WVTHRLEGLLKQSGGVV[hArg]KNFVPTDVGPFAF-NH2", "SMILES": "CC(=O)N[C@@H](Cc1c[nH]c2ccccc12)C(=O)N[C@H](C(=O)N[C@H](C(=O)N[C@@H](Cc1c[nH]cn1)C(=O)N[C@@H](CCCNC(=N)N)C(=O)N[C@@H](CC(C)C)C(=O)N[C@@H](CCC(=O)O)C(=O)NCC(=O)N[C@@H](CC(C)C)C(=O)N[C@@H](CC(C)C)C(=O)N[C@@H](CCCCN)C(=O)N[C@@H](CCC(N)=O)C(=O)N[C@@H](CO)C(=O)NCC(=O)NCC(=O)N[C@H](C(=O)N[C@H](C(=O)N[C@@H](CCCCNC(=N)N)C(=O)N[C@@H](CCCCN)C(=O)N[C@@H](CC(N)=O)C(=O)N[C@@H](Cc1ccccc1)C(=O)N[C@H](C(=O)N1CCC[C@H]1C(=O)N[C@H](C(=O)N[C@@H](CC(=O)O)C(=O)N[C@H](C(=O)NCC(=O)N1CCC[C@H]1C(=O)N[C@@H](Cc1ccccc1)C(=O)N[C@@H](C)C(=O)N[C@@H](Cc1ccccc1)C(N)=O)C(C)C)[C@@H](C)O)C(C)C)C(C)C)C(C)C)[C@@H](C)O)C(C)C"}, "B5": {"name": "SEQ ID NO 910 (peptide)", "peptide": "Ac-[1Nal]VEH[hArg]LKGLLS[Cit]SG[Aze]VV[hArg]KNFVPTDVGPFAF-NH2", "SMILES": "CC(=O)N[C@@H](Cc1cccc2ccccc12)C(=O)N[C@H](C(=O)N[C@@H](CCC(=O)O)C(=O)N[C@@H](Cc1c[nH]cn1)C(=O)N[C@@H](CCCCNC(=N)N)C(=O)N[C@@H](CC(C)C)C(=O)N[C@@H](CCCCN)C(=O)NCC(=O)N[C@@H](CC(C)C)C(=O)N[C@@H](CC(C)C)C(=O)N[C@@H](CO)C(=O)N[C@@H](CCCNC(N)=O)C(=O)N[C@@H](CO)C(=O)NCC(=O)N1CC[C@H]1C(=O)N[C@H](C(=O)N[C@H](C(=O)N[C@@H](CCCCNC(=N)N)C(=O)N[C@@H](CCCCN)C(=O)N[C@@H](CC(N)=O)C(=O)N[C@@H](Cc1ccccc1)C(=O)N[C@H](C(=O)N1CCC[C@H]1C(=O)N[C@H](C(=O)N[C@@H](CC(=O)O)C(=O)N[C@H](C(=O)NCC(=O)N1CCC[C@H]1C(=O)N[C@@H](Cc1ccccc1)C(=O)N[C@@H](C)C(=O)N[C@@H](Cc1ccccc1)C(N)=O)C(C)C)[C@@H](C)O)C(C)C)C(C)C)C(C)C)C(C)C"}, "B6": {"name": "SEQ ID NO 900 (peptide)", "peptide": "Ac-[1Nal]VEH[hArg]LKGLLS[Cit]SGGVVRKNFVPTDVGPFAF-NH2", "modifications": "lactam 3-7", "SMILES": "CC(=O)N[C@@H](Cc1cccc2ccccc12)C(=O)N[C@H](C(=O)N[C@H]1CCC(=O)NCCCC[C@@H](C(=O)NCC(=O)N[C@@H](CC(C)C)C(=O)N[C@@H](CC(C)C)C(=O)N[C@@H](CO)C(=O)N[C@@H](CCCNC(N)=O)C(=O)N[C@@H](CO)C(=O)NCC(=O)NCC(=O)N[C@H](C(=O)N[C@H](C(=O)N[C@@H](CCCNC(=N)N)C(=O)N[C@@H](CCCCN)C(=O)N[C@@H](CC(N)=O)C(=O)N[C@@H](Cc2ccccc2)C(=O)N[C@H](C(=O)N2CCC[C@H]2C(=O)N[C@H](C(=O)N[C@@H](CC(=O)O)C(=O)N[C@H](C(=O)NCC(=O)N2CCC[C@H]2C(=O)N[C@@H](Cc2ccccc2)C(=O)N[C@@H](C)C(=O)N[C@@H](Cc2ccccc2)C(N)=O)C(C)C)[C@@H](C)O)C(C)C)C(C)C)C(C)C)NC(=O)[C@H](CC(C)C)NC(=O)[C@H](CCCCNC(=N)N)NC(=O)[C@H](Cc2c[nH]cn2)NC1=O)C(C)C"}}, "note": "Bridge positions count the residues as written; N and C are the ends. Square brackets hold non-standard residues; d marks the D form. Ends that are not written are not given here. 1Nal = N[C@@H](Cc1cccc2ccccc12)C(=O)O; hArg = N=C(N)NCCCC[C@H](N)C(=O)O; Cit = NC(=O)NCCC[C@H](N)C(=O)O; Aze = O=C(O)[C@@H]1CCN1; Aib = CC(C)(N)C(=O)O; Ahx = NCCCCCC(=O)O", "data": [{"target": "CGRP1 receptor (CRLR/RAMP1 complex) of human neuroblastoma SK-N-MC cells (human, UniProt Q16602 23-461; O60894 27-148)", "sequence (Q16602 23-461, chain 1 of 2)": "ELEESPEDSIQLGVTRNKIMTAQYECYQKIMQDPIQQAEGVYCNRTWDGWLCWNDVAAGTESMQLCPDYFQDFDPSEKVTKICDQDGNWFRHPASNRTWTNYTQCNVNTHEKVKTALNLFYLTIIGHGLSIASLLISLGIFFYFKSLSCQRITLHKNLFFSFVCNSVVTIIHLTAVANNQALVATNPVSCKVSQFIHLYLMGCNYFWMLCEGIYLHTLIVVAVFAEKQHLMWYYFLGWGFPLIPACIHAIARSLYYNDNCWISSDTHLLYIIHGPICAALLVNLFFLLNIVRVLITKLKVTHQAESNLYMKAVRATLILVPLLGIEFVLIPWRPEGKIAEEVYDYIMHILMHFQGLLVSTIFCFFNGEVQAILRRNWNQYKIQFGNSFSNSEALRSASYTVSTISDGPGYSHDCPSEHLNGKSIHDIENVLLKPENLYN", "sequence (O60894 27-148, chain 2 of 2)": "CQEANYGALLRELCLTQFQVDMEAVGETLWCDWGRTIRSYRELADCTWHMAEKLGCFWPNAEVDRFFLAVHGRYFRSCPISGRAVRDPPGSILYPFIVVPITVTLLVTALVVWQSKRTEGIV", "test": "cell-based or functional assay", "units": {"PEG-peptide IC50": "nM", "Peptide IC50": "nM"}, "values": [{"binder": "Ac-WVEH[Cit]LKGLLS[Cit]SGGVV[hArg]KNFVPTDVGPFAF-NH2 (lactam 3-7; also: PEG-conjugated, in most cases at Lys25)", "note": "[PEG-peptide of SEQ ID NO 907]", "PEG-peptide IC50": 4.87}, {"binder": "Ac-WVEHRLKGLLS[Cit]SGGVV[hArg]KNFVPTDVGPFAF-NH2 (lactam 3-7)", "note": "[SEQ ID NO 906]", "Peptide IC50": 1.15}, {"binder": "WVEHRLKGELSRKGGVVXKNFVPTDVGPFAF (Ac-WVEHRLKGELSRKGGVV[hArg]KNFVPTDVGPFAF-NH2)", "note": "[SEQ ID NO 901]", "Peptide IC50": 1.02}, {"binder": "WVEHRLKGELSXKGGVVXKNFVPTDVGPFAF (Ac-WVEHRLKGELS[Cit]KGGVV[hArg]KNFVPTDVGPFAF-NH2)", "note": "[SEQ ID NO 902]", "Peptide IC50": 0.49}, {"binder": "Ac-WVEHRLKGLLS[hArg]SGGVV[hArg]KNFVPTDVGPFAF-NH2 (lactam 3-7; also: PEG-conjugated, in most cases at Lys25)", "note": "[PEG-peptide of SEQ ID NO 905]", "PEG-peptide IC50": 3.7}, {"binder": "B1", "Peptide IC50": 1.8}, {"binder": "Ac-WVEHRLKGLLS[Cit]SGGVV[hArg]KNFVPTDVGPFAF-NH2 (lactam 3-7; also: PEG-conjugated, in most cases at Lys25)", "note": "[PEG-peptide of SEQ ID NO 906]", "PEG-peptide IC50": 2.29}, {"binder": "Ac-WVEHRLKGLLS[hArg]SGGVV[hArg]KNFVPTDVGPFAF-NH2 (lactam 3-7)", "note": "[SEQ ID NO 905]", "Peptide IC50": 1.7}, {"binder": "B2", "Peptide IC50": 1.28}, {"binder": "WVTHRLAGLLSRSGGVVRKNXVPTDVGPFAF (Ac-WVTHRLAGLLSRSGGVVRKN[2-Nal]VPTDVGPFAF-NH2)", "note": "[SEQ ID NO 912]", "Peptide IC50": 1.16}, {"binder": "WVTHRLAGLLSRSGGVVRKNFVPTDVGPFAX (Ac-WVTHRLAGLLSRSGGVVRKNFVPTDVGPFA[1-Nal]-NH2)", "note": "[SEQ ID NO 914]", "Peptide IC50": 33.1}, {"binder": "WVTHRLAGLLSRSGGVVRKNFVPTDVGPFAX (Ac-WVTHRLAGLLSRSGGVVRKNFVPTDVGPFA[2-Nal]-NH2)", "note": "[SEQ ID NO 913]", "Peptide IC50": 1.72}, {"binder": "B3", "Peptide IC50": 3.45}, {"binder": "B4", "Peptide IC50": 3.5}, {"binder": "Ac-[Aib]WVEH[hArg]LKGLLS[Cit]SGGVVRKNFVPTDVGPFAF-NH2 (lactam 4-8; also: PEG-conjugated, in most cases at Lys25)", "note": "[PEG-peptide of SEQ ID NO 898]", "PEG-peptide IC50": 40.7}, {"binder": "Ac-WVTHRLAGLLSRSGGVVRKNFVPTDVGSKAF-NH2", "note": "[SEQ ID NO 915]", "Peptide IC50": 1.15}, {"binder": "Ac-WVEHRLKGLLSQSGGVV[hArg]KNFVPTDVGPFAF-NH2 (lactam 3-7)", "note": "[SEQ ID NO 904]", "Peptide IC50": 2.03}, {"binder": "Ac-WVEH[hArg]LKGLLS[Cit]SG[Aze]VVRKNFVPTDVGPFAF-NH2 (lactam 3-7)", "note": "[SEQ ID NO 899]", "Peptide IC50": 1.62}, {"binder": "Ac-WVEHRLKGLLSQSGGVV[hArg]KNFVPTDVGPFAF-NH2 (lactam 3-7; also: PEG-conjugated, in most cases at Lys25)", "note": "[PEG-peptide of SEQ ID NO 904]", "PEG-peptide IC50": 6.73}, {"binder": "B5", "Peptide IC50": 2.31}, {"binder": "Ac-WVTHRLAGLLSRSGGVVRKNFVPTDVGPKAF-NH2", "note": "[SEQ ID NO 917]", "Peptide IC50": 1}, {"binder": "B6", "Peptide IC50": 2.43}]}]}
